This assay has as its target X. laevis FcRγ subunit, c-myc-tagged (X. laevis).

“XFL1.7-HA with its own TM1 region (X. laevis XFL1.7, extracellular plus transmembrane part) (domain or fragment)” registered a surface expression of XFL1.7-HA on transiently transfected 293T cells (anti-HA surface staining, flow cytometry), alone against co-transfected with FcRγ of 2 fold.
